The source of these data is patent publication US20050032064A1 (GENFIT, published 2005).

This data set deals with the molecule itself. In words: electrophoretic mobility shift assay, in vitro translated protein on labeled Rev-DR2 oligonucleotide. The method, then: The electrophoretic gel shift studies were carried out by using the indicated end-labeled oligonucleotides, in the presence of the murine PPAR GAMMA receptor, murine RXR ALPHA receptor, human REV-ERB ALPHA receptor produced by reticulocyte lysate, or non-programmed lysates (lysate). Binding competition experiments were performed by adding a 0, 10 or 100-fold excess of unlabeled Rev-DR2 oligonucleotide.
The pSG5-mPPAR-gamma, pSG5-mRXR-alpha and pSG5-hRev-erb alpha plasmids were transcribed in vitro with T7 polymerase and translated with the rabbit reticulocyte lysate system (Promega, Madison, Wis., USA). Gel shift experiments with REV-ERB ALPHA, PPAR GAMMA and/or RXR ALPHA proteins were carried out as previously described (Gervois, P. et al., Molecular Endocrinology 1999, 13(3): 400-409; Vu-Dac, N. et al., J. Biol. Chem. 1994, 269(49): 31012-31018). For the competition experiments, increasing quantities of the indicated unlabeled probe were added immediately before adding the labeled oligonucleotide. The complexes were resolved in 5% polyacrylamide gels using […] buffer (90 mM borate, 2.5 mM EDTA, pH 8.3) at room temperature. Gels were dried and exposed overnight at −70° C. on Rayon-X film (XOMAT-AR, Eastman Kodak, Rochester, N.Y., USA).
Lastly, binding of the PPAR GAMMA receptor to the Rev-DR2 site was studied. […]
A general note: In EMSA bound probe runs differently from free probe, usually more slowly.

B1: human REV-ERB ALPHA receptor (receptor)
chain: MTTLDSNNNTGGVITYIGSSGSSPSRTSPESLYSDNSNGSFQSLTQGCPTYFPPSPTGSLTQDPARSFGSIPPSLSDDGSPSSSSSSSSSSSSFYNGSPPGSLQVAMEDSSRVSPSKSTSNITKLNGMVLLCKVCGDVASGFHYGVHACEGCKGFFRRSIQQNIQYKRCLKNENCSIVRINRNRCQQCRFKKCLSVGMSRDAVRFGRIPKREKQRMLAEMQSAMNLANNQLSSQCPLETSPTQHPTPGPMGPSPPPAPVPSPLVGFSQFPQQLTPPRSPSPEPTVEDVISQVARAHREIFTYAHDKLGSSPGNFNANHASGSPPATTPHRWENQGCPPAPNDNNTLAAQRHNEALNGLRQAPSSYPPTWPPGPAHHSCHQSNSNGHRLCPTHVYAAPEGKAPANSPRQGNSKNVLLACPMNMYPHGRSGRTVQEIWEDFSMSFTPAVREVVEFAKHIPGFRDLSQHDQVTLLKAGTFEVLMVRFASLFNVKDQTVMFLSRTTYSLQELGAMGMGDLLSAMFDFSEKLNSLALTEEELGLFTAVVLVSADRSGMENSASVEQLQETLLRALRALVLKNRPLETSRFTKLLLKLPDLRTLNNMHSEKLLSFRVDAQ
notes: also called hRev-erb alpha
For B1, the binding result was “binds”.
